# Laboratory results from PMC5030094, “Human DNA2 possesses a cryptic DNA unwinding activity that functionally integrates with BLM or WRN helicases”.
# T1: hDNA2 D277A (nuclease-deficient) (Homo sapiens, UniProt P51530 1-1060, D277A)
# T1 sequence: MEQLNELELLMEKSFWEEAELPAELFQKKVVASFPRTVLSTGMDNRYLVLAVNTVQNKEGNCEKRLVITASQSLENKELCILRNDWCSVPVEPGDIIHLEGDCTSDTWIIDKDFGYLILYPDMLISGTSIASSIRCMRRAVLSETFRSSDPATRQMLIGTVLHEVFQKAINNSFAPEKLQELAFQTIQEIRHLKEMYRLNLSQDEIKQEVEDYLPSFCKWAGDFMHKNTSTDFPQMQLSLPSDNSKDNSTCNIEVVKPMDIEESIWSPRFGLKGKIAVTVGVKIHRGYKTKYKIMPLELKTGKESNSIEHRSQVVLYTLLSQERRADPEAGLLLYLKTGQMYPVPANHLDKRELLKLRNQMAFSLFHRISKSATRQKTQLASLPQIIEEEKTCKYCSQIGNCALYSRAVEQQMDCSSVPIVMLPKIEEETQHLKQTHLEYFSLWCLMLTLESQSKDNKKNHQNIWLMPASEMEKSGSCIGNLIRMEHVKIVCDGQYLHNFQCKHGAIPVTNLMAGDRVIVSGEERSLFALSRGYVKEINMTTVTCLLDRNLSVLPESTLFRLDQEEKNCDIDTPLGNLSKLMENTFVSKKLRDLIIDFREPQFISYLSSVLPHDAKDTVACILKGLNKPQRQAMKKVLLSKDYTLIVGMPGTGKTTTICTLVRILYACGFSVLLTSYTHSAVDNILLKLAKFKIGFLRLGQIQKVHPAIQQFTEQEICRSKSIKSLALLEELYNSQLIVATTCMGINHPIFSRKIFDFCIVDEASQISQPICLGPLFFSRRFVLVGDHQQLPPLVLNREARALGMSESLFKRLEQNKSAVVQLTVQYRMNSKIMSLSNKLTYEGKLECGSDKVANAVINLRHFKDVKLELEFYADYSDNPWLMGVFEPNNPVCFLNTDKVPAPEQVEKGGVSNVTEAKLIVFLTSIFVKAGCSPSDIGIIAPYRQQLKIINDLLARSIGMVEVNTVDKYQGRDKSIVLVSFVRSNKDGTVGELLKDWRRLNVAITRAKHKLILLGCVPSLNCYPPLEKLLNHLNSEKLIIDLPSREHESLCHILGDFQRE
# Molecular target: T1, hDNA2 D277A (nuclease-deficient)
# Assay: EMSA; no RPA; 25 mM Tris-acetate pH 7.5, 2 mM Mg acetate, 1 mM DTT, 0.1 mg/ml BSA, 1 nM DNA, 37 C 30 min; 6% PAGE in TAE on ice
# Settings: protein: recombinant; tags: N-terminal 6xHis, C-terminal FLAG; label: 5' 32P; single strand
binder,measurement,value
GACGTCATAGACGATTACATTGCTAGGACATGCTGTCTAGAGACTATCGC (ssDNA) [ssDNA 50 nt (X12-3)],Kd,~2 nM
